Reference: PMC8230800, “Interaction of Temporin-L Analogues with the E. coli FtsZ Protein” (Antibiotics, 2021)
Ends that are not written are not given here.

B3: Escherichia coli FtsZ protein (enzyme, E. coli, UniProt P0A9A6 1-383, looked up)
chain: MFEPMELTNDAVIKVIGVGGGGGNAVEHMVRERIEGVEFFAVNTDAQALRKTAVGQTIQIGSGITKGLGAGANPEVGRNAADEDRDALRAALEGADMVFIAAGMGGGTGTGAAPVVAEVAKDLGILTVAVVTKPFNFEGKKRMAFAEQGITELSKHVDSLITIPNDKLLKVLGRGISLLDAFGAANDVLKGAVQGIAELITRPGLMNVDFADVRTVMSEMGYAMMGSGVASGEDRAEEAAEMAISSPLLEDIDLSGARGVLVNITAGFDLRLDEFETVGNTIRAFASDNATVVIGTSLDPDMNDELRVTVVATGIGMDKRPEITLVTNKQVQQPVMDRYQQHGMAPLTQEQKPVAKVVNDNAPQTAKEPDYLDIPAFLRKQAD
notes: also called recombinant FtsZ; source: E. coli BL21, overexpressed and purified as described previously [7]

What was measured:
[1] = molecular target: T1, FtsZ (recombinant E. coli FtsZ) (Escherichia coli, UniProt P0A9A6); assay: Fluorescence binding experiment (spectrofluorimetric titration); conditions: FtsZ 12 μM, peptide 1 to 180 μM, 20 °C, excitation 280 nm, emission 347 nm, one site-specific binding fit, in duplicate; read-out: Kd of FtsZ-peptide complex
T1 construct: made in house; host or cells: E. coli BL21
Experimental: Right panel (d–f): Diagram plots extrapolated from fluorescence data. The experiments were performed in duplicate and the standard deviation is reported as error bars.
(§1) Recombinant E. coli FtsZ was overexpressed and purified from E. coli BL21 strain as described previously. The purity of the protein was analyzed by SDS-PAGE 12.5% and its primary structure was validated by MALDI mapping strategy on a 5800 MALDI-TOF/TOF instrument (ABI Sciex, Foster City, CA, USA). The concentration of purified FtsZ was determined by Bradford’s method, using BSA as a standard. The protein was stored at −80 °C.
Fluorescence experiments were performed using a Fluoromax-4 spectrofluorometer from Horiba Scientific, using 1 cm optical path-length quartz cell under controlled temperature conditions (Peltier control system at 20 °C). The sample was analyzed, monitoring the fluorescence intensity of aromatic residues with an excitation wavelength of 280 nm. The wavelength range explored was 295–500 nm. […] All experiments were repeated in duplicate. The change in the fluorescence intensity of the reaction set was fitted into “one site-specific binding” equation of GraphPad Prism 5 (GraphPad Software, San Diego, CA, USA).

[2] = molecular target: T1, FtsZ (recombinant E. coli FtsZ); assay: GTPase activity assay (BIOMOL Green Pi release); format: biochemical; conditions: 35 µM peptide, GTP substrate, 25 mM PIPES/NaOH pH 6.8
Experimental: The putative effect of the two TL analogues on FtsZ GTPase activity was evaluated by enzymatic assays.
The reaction was performed for 10 min and the Pi release was determined by measuring the absorbance at 620 nm following 25 min incubation. (b) Lineweaver−Burk plots from which the KM constants were calculated. (c) Calculated KM constants and Vmax for the enzymatic assays. The experiment was performed in duplicate and presented as mean ± standard error.
as §1
The amount of Pi released during the assembly of FtsZ was measured using BIOMOL Green phosphate reagent (Biomol, Milan, Italy) as described earlier. […] The reaction was performed for 10 min and stopped by addition of 100 µL BIOMOL Green reagent. The Pi release was determined after incubation at 25 °C for 25 min by measuring the absorbance at 620 nm. The background was subtracted from all the readings. The experiment was performed in duplicate. […]

[3] = molecular target: B3; assay: other fluorescence titration; intrinsic fluorescence of FtsZ (12 µM), excitation 280 nm, emission 347 nm, 20 °C, peptide from 1 to 180 µM, fitted to 'one site-specific binding', duplicate; conditions: both partners purified
[4] = molecular target: the molecule itself; assay: co-sedimentation; polymerization assay: FtsZ 12 µM in 25 mM PIPES/NaOH pH 6.8, 1 mM GTP, 25 °C 1 h, without or with 10, 30, 50, 70 µM peptide; centrifugation 14,000 rpm 60 min, pellet on SDS-PAGE, densitometry

FVKWFKKFLTRILF [TRILF]
Kd [1]: 4.3 ± 0.2 µM

Magainin-2
effect on FtsZ GTPase activity (in words) [2]: no effect on the GTP activity

B1: Native Temporin L (peptide)
peptide: FVQWFSKFLGRIL
notes: Temporin-L, amphibian antimicrobial peptide, 13 residues; also called TL; native TL
Kd [3]: 11 ± 1 µM

B2: TRIL (Temporin-L analogue) (peptide)
peptide: FVKWFKKFLTRIL
notes: Temporin-L with Q3K, S6K and G10T; Designed from the docking model of FtsZ with TL
Kd [3]: 21.4 ± 1.1 µM

B3
binding result [4]: binds
